Assay results: patent US20210032365A1 (Chugai, published 2021)
Substitutions are numbered along the chain they refer to.

T1: human C1s (human, UniProt P09871 16-688)
T1 construct: also called hC1s; serum-derived human C1s (CompTech)
T1 sequence: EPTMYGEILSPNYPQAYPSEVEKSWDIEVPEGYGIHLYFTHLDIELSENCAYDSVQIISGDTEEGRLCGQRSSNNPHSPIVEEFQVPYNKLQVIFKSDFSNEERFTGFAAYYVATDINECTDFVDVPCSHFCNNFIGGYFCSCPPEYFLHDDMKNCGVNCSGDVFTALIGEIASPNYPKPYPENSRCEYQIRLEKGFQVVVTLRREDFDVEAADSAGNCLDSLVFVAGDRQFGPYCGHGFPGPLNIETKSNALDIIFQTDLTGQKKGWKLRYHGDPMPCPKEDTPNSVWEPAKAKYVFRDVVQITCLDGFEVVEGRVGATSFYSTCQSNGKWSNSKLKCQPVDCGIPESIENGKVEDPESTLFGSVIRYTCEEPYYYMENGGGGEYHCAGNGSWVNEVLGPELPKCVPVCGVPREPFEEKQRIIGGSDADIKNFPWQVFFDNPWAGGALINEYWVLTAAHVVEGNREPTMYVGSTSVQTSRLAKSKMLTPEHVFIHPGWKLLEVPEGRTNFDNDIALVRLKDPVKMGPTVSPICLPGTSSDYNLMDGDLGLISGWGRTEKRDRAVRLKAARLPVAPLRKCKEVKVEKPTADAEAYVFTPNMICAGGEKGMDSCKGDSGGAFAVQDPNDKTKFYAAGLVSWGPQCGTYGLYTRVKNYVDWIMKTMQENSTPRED

B1: C1_IPN92H0026-SG4GK/IPN93L0028-SK1 (antibody, human IgG4 S228P, kappa, name in Kabat numbering, V domains shown)
VH: EVMLVESGGGLVKPGGSLRLSCAASGFTFSNYAMSWVRQAPGKGLEWVATISSGGSHTYYLDSVKHRFTISRDNSKDTLYLQMNSLRAEDTALYYCARLFTGYAMDYWGQGTLVTVSS
VL: QIVLTQSPATLSLSPGERATLSCTASSSVSSSYLHWYQQKPGKAPKLWIYSTSNLASGVPSRFSGSGSGTDYTLTISSLQPEDFATYYCHQYHRHPPITFGQGTKLEIKR
notes: also called IPN92H0026/IPN93L0028
B2: C1_IPN92H0026-SG4GK/IPN93L0031-SK1 (antibody, human IgG4 S228P, kappa, name in Kabat numbering, V domains shown)
VH: B1 VH
VL: B1 VL with P96H
notes: also called IPN92H0026/IPN93L0031
B3: C1_IPN92H0033-SG4GK/IPN93L0029-SK1 (antibody, human IgG4 S228P, kappa, name in Kabat numbering, V domains shown)
VH: B1 VH with H66G, Y103H
VL: B1 VL with H95L, P96H
notes: also called IPN92H0033/IPN93L0029
B4: C1_IPN92H0026-SG4GK/IPN93L0030-SK1 (antibody, human IgG4 S228P, kappa, name in Kabat numbering, V domains shown)
VH: B1 VH
VL: B1 VL with H93Y, P96H
notes: also called IPN92H0026/IPN93L0030
B5: C1_IPN92H0038-SG4GK/IPN93L0023-SK1 (antibody, human IgG4 S228P, kappa, name in Kabat numbering, V domains shown)
VH: B1 VH with Y103H
VL: B1 VL with H93Y
notes: also called IPN92H0038/IPN93L0023
B6: C1_IPN92H0033-SG4GK/IPN93L0023-SK1 (antibody, human IgG4 S228P, kappa, name in Kabat numbering, V domains shown)
VH: B1 VH with H66G, Y103H
VL: B1 VL with H93Y
notes: also called IPN92H0033/IPN93L0023
B7: C1_IPN92H0038-SG4GK/IPN009VK3-SK1 (antibody, human IgG4 S228P, kappa, name in Kabat numbering, V domains shown)
VH: B1 VH with Y103H
VL: B1 VL with H93Y, H95L
notes: also called IPN92H0038/IPN009VK3
B8: C1_IPN92H0033-SG4GK/IPN93L0021-SK1 (antibody, human IgG4 S228P, kappa, name in Kabat numbering, V domains shown)
VH: B1 VH with H66G, Y103H
VL: B1 VL with H95L
notes: also called IPN92H0033/IPN93L0021
B9: C1_IPN92H0026-SG4GK/IPN93L0029-SK1 (antibody, human IgG4 S228P, kappa, name in Kabat numbering, V domains shown)
VH: B1 VH
VL: B1 VL with H95L, P96H
notes: also called IPN92H0026/IPN93L0029
B10: C1_IPN92H0033-SG4GK/IPN93L0030-SK1 (antibody, human IgG4 S228P, kappa, name in Kabat numbering, V domains shown)
VH: B1 VH with H66G, Y103H
VL: B1 VL with H93Y, P96H
notes: also called IPN92H0033/IPN93L0030
B11: C1_IPN92H0038-SG4GK/IPN93L0021-SK1 (antibody, human IgG4 S228P, kappa, name in Kabat numbering, V domains shown)
VH: B1 VH with Y103H
VL: B1 VL with H95L
notes: also called IPN92H0038/IPN93L0021
B12: C1_IPN92H0033-SG4GK/IPN93L0028-SK1 (antibody, human IgG4 S228P, kappa, name in Kabat numbering, V domains shown)
VH: B1 VH with H66G, Y103H
VL: B1 VL
notes: also called IPN92H0033/IPN93L0028
B13: C1_IPN92H0033-SG4GK/IPN93L0031-SK1 (antibody, human IgG4 S228P, kappa, name in Kabat numbering, V domains shown)
VH: B1 VH with H66G, Y103H
VL: B1 VL with P96H
notes: also called IPN92H0033/IPN93L0031
B14: C1_IPN92H0038-SG4GK/IPN93L0024-SK1 (antibody, human IgG4 S228P, kappa, name in Kabat numbering)
heavy: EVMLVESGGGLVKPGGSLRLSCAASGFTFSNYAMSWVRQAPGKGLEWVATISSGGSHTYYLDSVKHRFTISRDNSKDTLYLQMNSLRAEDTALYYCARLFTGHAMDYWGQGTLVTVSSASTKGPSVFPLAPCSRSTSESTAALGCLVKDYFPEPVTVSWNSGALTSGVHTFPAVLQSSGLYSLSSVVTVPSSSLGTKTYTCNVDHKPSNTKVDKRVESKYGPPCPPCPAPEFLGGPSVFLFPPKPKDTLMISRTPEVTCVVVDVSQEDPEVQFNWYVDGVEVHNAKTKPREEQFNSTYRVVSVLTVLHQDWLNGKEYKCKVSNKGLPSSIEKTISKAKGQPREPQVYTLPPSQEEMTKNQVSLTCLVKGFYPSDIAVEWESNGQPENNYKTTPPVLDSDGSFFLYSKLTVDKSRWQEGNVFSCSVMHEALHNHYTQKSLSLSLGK
light: QIVLTQSPATLSLSPGERATLSCTASSSVSSSYLHWYQQKPGKAPKLWIYSTSNLASGVPSRFSGSGSGTDYTLTISSLQPEDFATYYCHQYYRLHPITFGQGTKLEIKRTVAAPSVFIFPPSDEQLKSGTASVVCLLNNFYPREAKVQWKVDNALQSGNSQESVTEQDSKDSTYSLSSTLTLSKADYEKHKVYACEVTHQGLSSPVTKSFNRGEC
notes: also called IPN92H0038/IPN93L0024

Assays:
human C1s [1] = target: T1, human C1s; assay: SPR; KD pH 5.8 3 uM Ca / KD pH 7.4 1.2 mM Ca
Description: (§1) All variants were transiently expressed and purified by the method described above. The binding affinity of each histidine-substituted variant at pH 7.4 and pH 5.8 was determined at 37 degrees C. using Biacore T200 instrument (GE Healthcare). Recombinant Protein A/G (Pierce) was immobilized onto all flow cells of a CM4 sensor chip using an amine coupling kit (GE Healthcare). Antibodies and analytes were prepared in 7(+) buffer (20 mM ACES, 150 mM NaCl, 1.2 mM CaCl2, 0.05% Tween 20, 0.005% NaN3, pH 7.4), 5(+) buffer (20 mM ACES, 150 mM NaCl, 1.2 mM CaCl2, 0.05% Tween 20, 0.005% NaN3, pH 5.8), or 5(−) buffer (20 mM ACES, 150 mM NaCl, 3 micro M CaCl2, 0.05% Tween 20, 0.005% NaN3, pH 5.8). Each antibody was captured onto the sensor surface by protein A/G. Antibody capture levels were aimed at 200 resonance unit (RU). Serum-derived human C1s (CompTech) or recombinant C1s prepared in EXAMPLE 1 was injected at 50 nM, followed by dissociation. The sensor surface was regenerated in each cycle with 10 mM Glycine-HCl, pH 1.5. […] The ratio of KD 5.8+ to KD 7.4+(“KD 5+/7+”) and that of KD 5.8− to KD 7.4+(“KD 5−/7+”) were calculated. When the KD 5+/7+ or KD 5−/7+ of a variant is larger than that of the parent antibody IPN009VH2-SG4GK/IPN009VK3-SK1, that variant is considered to be “pH”- or “pH and Ca”-dependent, respectively. When binding response in 5(+) buffer and/or in 5(−) buffer of a variant is much lower than that of IPN09VH2/IPN009VK3, that variant is also considered as “pH”- and/or “pH and Ca”-dependent. Therefore, such mutations are effective to generate “pH”- and/or “pH and Ca”-dependent antibody. To further enhance “pH” and/or “pH and Ca” dependency, a combination of histidine mutations was conducted. Antibodies with combinations of histidine mutations were evaluated using Biacore by the method described above.

human C1s [2] = target: T1, human C1s; assay: SPR, Ab captured; pH 7.4, 1.2 mM Ca
Description: as §1

human C1s [3] = target: T1, human C1s; assay: SPR, Ab captured; pH 5.8, 1.2 mM Ca
Description: as §1

human C1s [4] = target: T1, human C1s; assay: SPR; KD pH 5.8 1.2 mM Ca / KD pH 7.4 1.2 mM Ca
Description: as §1

human C1s [5] = target: T1, human C1s; assay: SPR, Ab captured; pH 5.8, 3 uM Ca
Description: as §1

Row | Binder | KD 5(-)/7(+) (human C1s [1]) | Kd (human C1s [2]) | koff (human C1s [2]) | kon (human C1s [2]) | Kd (human C1s [3]) | koff (human C1s [3]) | kon (human C1s [3]) | KD 5(+)/7(+) (human C1s [4]) | Kd (human C1s [5]) | koff (human C1s [5]) | kon (human C1s [5])
1 | B1 | 5.8 | 4.76 nM | 0.00255 s⁻¹ | 535000 M⁻¹ s⁻¹ | 10.6 nM | 0.0059 s⁻¹ | 557000 M⁻¹ s⁻¹ | 2.2 | 27.6 nM | 0.176 s⁻¹ | 6.4e+06 M⁻¹ s⁻¹
2 | B2 | 0.3 | 684 nM | 0.016 s⁻¹ | 23300 M⁻¹ s⁻¹ | 4290 nM | 0.0178 s⁻¹ | 4140 M⁻¹ s⁻¹ | 6.3 | 215 nM | 0.00133 s⁻¹ | 6170 M⁻¹ s⁻¹
3 | B3 | 0.6 | 15.4 nM | 0.0074 s⁻¹ | 479000 M⁻¹ s⁻¹ | 24.6 nM | 0.0222 s⁻¹ | 905000 M⁻¹ s⁻¹ | 1.6 | 9.79 nM | 0.00376 s⁻¹ | 384000 M⁻¹ s⁻¹
4 | B4 | 10.9 | 24.8 nM | 0.0103 s⁻¹ | 414000 M⁻¹ s⁻¹ | 26.2 nM | 0.0592 s⁻¹ | 2.26e+06 M⁻¹ s⁻¹ | 1.1 | 270 nM | 0.0012 s⁻¹ | 4460 M⁻¹ s⁻¹
5 | B5 | 6.3 | 1.91 nM | 0.000808 s⁻¹ | 422000 M⁻¹ s⁻¹ | 5.33 nM | 0.00279 s⁻¹ | 524000 M⁻¹ s⁻¹ | 2.8 | 12.1 nM | – | –
6 | B6 | 3.5 | 3.25 nM | 0.000978 s⁻¹ | 301000 M⁻¹ s⁻¹ | 5.05 nM | 0.00282 s⁻¹ | 559000 M⁻¹ s⁻¹ | 1.6 | 11.3 nM | – | –
7 | B7 | 12.3 | 0.679 nM | 0.000282 s⁻¹ | 415000 M⁻¹ s⁻¹ | 0.668 nM | 0.000463 s⁻¹ | 693000 M⁻¹ s⁻¹ | 1 | 8.33 nM | 0.00538 s⁻¹ | 646000 M⁻¹ s⁻¹
8 | B8 | 4 | 1.92 nM | 0.000672 s⁻¹ | 350000 M⁻¹ s⁻¹ | 5.01 nM | 0.00293 s⁻¹ | 585000 M⁻¹ s⁻¹ | 2.6 | 7.59 nM | – | –
9 | B9 | 0.6 | 9.03 nM | 0.00457 s⁻¹ | 507000 M⁻¹ s⁻¹ | 10.2 nM | 0.00613 s⁻¹ | 602000 M⁻¹ s⁻¹ | 1.1 | 5.07 nM | 0.00412 s⁻¹ | 812000 M⁻¹ s⁻¹
10 | B10 | 106 | 24.2 nM | 0.0146 s⁻¹ | 603000 M⁻¹ s⁻¹ | 89.3 nM | 0.0449 s⁻¹ | 503000 M⁻¹ s⁻¹ | 3.7 | 2560 nM | 0.0603 s⁻¹ | 23500 M⁻¹ s⁻¹
11 | B11 | 10.6 | 0.958 nM | 0.000477 s⁻¹ | 498000 M⁻¹ s⁻¹ | 3.53 nM | 0.00224 s⁻¹ | 634000 M⁻¹ s⁻¹ | 3.7 | 10.2 nM | – | –
12 | B12 | 1.3 | 6.5 nM | 0.00218 s⁻¹ | 335000 M⁻¹ s⁻¹ | 20.1 nM | 0.0144 s⁻¹ | 717000 M⁻¹ s⁻¹ | 3.1 | 8.5 nM | 0.0056 s⁻¹ | 658000 M⁻¹ s⁻¹
13 | B13 | 3.9 | – | 0.00187 s⁻¹ | 522000 M⁻¹ s⁻¹ | – | 0.00209 s⁻¹ | 807000 M⁻¹ s⁻¹ | 0.7 | – | 0.00934 s⁻¹ | 674000 M⁻¹ s⁻¹
14 | B14 | 3.5 | 1.57 nM | 0.000596 s⁻¹ | 380000 M⁻¹ s⁻¹ | 8.19 nM | 0.00418 s⁻¹ | 511000 M⁻¹ s⁻¹ | 5.2 | 5.47 nM | – | –
